T1: human ENTPD2, full length, on cells (human, UniProt Q9Y5L3 1-495)
T1 sequence: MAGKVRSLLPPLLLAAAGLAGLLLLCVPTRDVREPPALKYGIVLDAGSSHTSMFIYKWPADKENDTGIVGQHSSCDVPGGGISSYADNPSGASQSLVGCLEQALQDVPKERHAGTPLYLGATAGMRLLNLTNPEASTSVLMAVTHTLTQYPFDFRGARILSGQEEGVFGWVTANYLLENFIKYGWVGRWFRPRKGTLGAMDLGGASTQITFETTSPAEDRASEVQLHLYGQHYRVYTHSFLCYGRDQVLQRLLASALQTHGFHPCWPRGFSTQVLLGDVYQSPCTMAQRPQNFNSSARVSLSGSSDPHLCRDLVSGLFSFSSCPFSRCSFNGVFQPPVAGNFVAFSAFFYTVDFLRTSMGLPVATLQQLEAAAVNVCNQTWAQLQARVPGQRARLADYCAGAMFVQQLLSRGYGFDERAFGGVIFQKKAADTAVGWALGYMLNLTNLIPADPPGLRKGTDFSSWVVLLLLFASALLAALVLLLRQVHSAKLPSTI

T2: cynomolgus ENTPD2, full length, on cells (cynomolgus macaque, UniProt Q9Y5L3 1-495 (human entry))
T2 chain: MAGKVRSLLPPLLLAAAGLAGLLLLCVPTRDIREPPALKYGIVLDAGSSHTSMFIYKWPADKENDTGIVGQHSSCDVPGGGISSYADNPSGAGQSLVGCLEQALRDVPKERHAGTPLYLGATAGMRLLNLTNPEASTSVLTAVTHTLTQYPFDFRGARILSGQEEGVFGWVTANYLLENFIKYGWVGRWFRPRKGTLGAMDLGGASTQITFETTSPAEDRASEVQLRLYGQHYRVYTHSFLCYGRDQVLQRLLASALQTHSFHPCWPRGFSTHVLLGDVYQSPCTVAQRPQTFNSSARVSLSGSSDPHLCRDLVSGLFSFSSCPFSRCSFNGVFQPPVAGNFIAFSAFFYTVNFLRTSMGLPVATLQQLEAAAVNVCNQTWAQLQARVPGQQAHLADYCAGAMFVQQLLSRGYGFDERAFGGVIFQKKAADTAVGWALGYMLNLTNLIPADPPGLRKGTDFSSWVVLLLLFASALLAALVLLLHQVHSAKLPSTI


Assays:
Assay in all cases: cell-based or functional assay
[1] = target: T1, human ENTPD2, full length, on cells
[2] = target: T2, cynomolgus ENTPD2, full length, on cells
[3] = target: recombinant human ENTPD2 extracellular domain (residues 29-462) with C-terminal Avi-His6 tag (human, UniProt Q9Y5L3 29-462)

Binder	Human ENTPD2 NIH/3T3 Assay % inhibition [1] [%]	Human ENTPD2 NIH/3T3 Assay IC50 [1] [nM]	Cyno ENTPD2 NIH/3T3 Assay % inhibition [2] [%]	Cyno ENTPD2 NIH/3T3 Assay IC50 [2] [nM]	RKO Assay % inhibition [1] [%]	RKO Assay IC50 [1] [nM]	ENTPD2 Biochemical Assay at 1 uM ATP IC50 [3] [nM]
ANTI-HUMAN ENTPD2 MAB18 (antibody, human IgG1, kappa, V domains shown) VH: DIQLQESGPGLVKPSQSLSLTCSVTGYSITSGYYWNWIRQFPGNKLEWMGYISYDGDNNYNPSLKNRISITRDTSKNQFFLKLSSVTTEDTATYYCAGGYYRYGLGSYSGSYYYVMDYWGQGTSVTVSS VL: DTVLTQSPASLAVSLGQRATISCKASQSVDYDGNSYMNWYQQKPGQPPKLLIYAASNLESGIPARFSGSGSGTDFTLNIHPVEEEDAATYYCQQSNEDPPTFGGGTKLEIKR	88	0.4	68	20			
ANTI-HUMAN ENTPD2 MAB8 (antibody, human IgG1, lambda, V domains shown) VH: QVQLQQSGPGLVKPSQTLSLTCAISGDSVSSSSAAWNWIRQSPSRGLEWLGRIYYRSKWYNDYAVSVKSRITINPDTSKNQFSLQLNSVTPEDTAVYYCARGSYVTSSYEGFDYWGQGTLVTVSS VL: SYELTQPLSVSVALGQTARITCSGDNLPEKYAYWYQQKPGQAPVLVIYDDNKRPSGIPERFSGSNSGNTATLTISRAQAGDEADYYCQSYGKWGWTWVFGGGTKLTVLG	97	0.1	96	0.9	95	0.2	
ANTI-HUMAN ENTPD2 MAB4 (antibody, human IgG1, kappa, V domains shown) VH: QIQLQESGPGLVKPSQTLSLTCTVSGYSITSGYYWNWIRQHPGKGLEWIGYISYDADNNYNPSLKNRVTISRDTSKNQFSLKLSSVTAADTAVYYCAGGYYRYGLGSYRGSYYYVMDYWGQGTTVTVSS VL: ETVLTQSPATLSVSPGERATISCKASQSVDYEGHSYMNWYQQKPGQAPRLLIYAASNLESGIPARFSGSGSGTDFTLTISSVEPEDAATYYCQQSNEDPPTFGGGTKLEIKR	87	0.2	75	2.2	74	0.2	
ANTI-HUMAN ENTPD2 MAB6 (antibody, human IgG1, kappa, V domains shown) VH: QVQLQESGPGLVKPSQTLSLTCTVSGYSITSGYYWNWIRQHPGKGLEWMGYISYDADNNYNPSLKNRITISRDTSKNQFSLKLSSVTAADTAVYYCAGGYYRYGLGSYSGSYYYVMDYWGQGTTVTVSS VL: DTQMTQSPSSLSVSVGDRATITCKASQSVDYEGHSYMNWYQQKPGKAPKLLIYAASNLESGVPSRFSGSGSGTDFTLTISSVQPEDFATYYCQQSNEDPPTFGGGTKLEIKR	95	0.3	73	3.3	90	0.2	
ANTI-HUMAN ENTPD2 MAB5 (antibody, human IgG1, kappa, V domains shown) VH: QIQLQESGPGLVKPSQTLSLTCTVSGYSITSGYYWNWIRQHPGKGLEWIGYISYDADNNYNPSLKNRVTISRDTSKNQFSLKLSSVTAADTAVYYCAGGYYRYGLGSYRGSYYYVMDYWGQGTTVTVSS VL: ETVLTQSPATLSVSPGERATISCKASQSVDYDGNSYMNWYQQKPGQAPRLLIYAASNLESGIPARFSGSGSGTDFTLTISSVEPEDAATYYCQQSNEDPPTFGGGTKLEIKR	95	0.3	80	1.5	80	0.2	
ANTI-HUMAN ENTPD2 MAB9 (antibody, human IgG1, lambda, V domains shown) VH: QVQLVQSGAEVKKPGSSVKVSCKASGGTFDSYAVSWVRQAPGQGLEWMGRIVPWLGHTQYAQKFQGRVTITADESTSTAYMELSSLRSEDTAVYYCARESPGYRYSFDVWDQGTLVTVSS VL: SYELTQPLSVSVALGQTARITCSGDAIGEKYVYWYQQKPGQAPVLVIYDDNNRPSGIPERFSGSNSGNTATLTISRAQAGDEADYYCASYDLQQARWVFGGGTKLTVLG	92	0.3	71	0.3	70	0.1	
ANTI-HUMAN ENTPD2 MAB10 (antibody, human IgG1, lambda, V domains shown) VH: QVQLVQSGAEVKKPGSSVKVSCKASGGTFDSYAVSWVRQAPGQGLEWMGRIVPWLGFTRYAQKFQGRVTITADESTSTAYMELSSLRSEDTAVYYCARESPGYRYSFDVWDQGTLVTVSS VL: SYELTQPLSVSVALGQTARITCSGDAIGEKYVYWYQQKPGQAPVLVIYDDNNRPSGIPERFSGSNSGNTATLTISRAQAGDEADYYCASYDLQQARWVFGGGTKLTVLG	88	0.4	86	0.5	77	0.2	
ANTI-HUMAN ENTPD2 MAB11 (antibody, human IgG1, kappa, V domains shown) VH: EVQLLESGGGLVQSGGSLRLSCAASGFTFSSYAMSWVRQAPGKGLEWVSVISGSGGSTYYADSVKGRFTISRDNSKNTLYLQMNSLRAEDTAVYYCARGDDYGDDYYYYGMDVWGQGTTVTVSS VL: not shown	55	1.5					
ANTI-HUMAN ENTPD2 MAB12 (antibody, human IgG1, kappa, V domains shown) VH: EVLLVESGGGLVQPGGSLRLSCAASGFTFNSCSMNWVRQAPGKGLEWVSYISSSSSTIYYADSVKGRFTISRDNAKNSLYLQMNSLKDEDTAVYYCARDQGNWNYDDYYNGLDVWGQGTTVTVSS VL: not shown	68	26.6					
ANTI-HUMAN ENTPD2 MAB19 (antibody, human IgG1, kappa, V domains shown) VH: EVQLQQFGAELVKPGTSVKISCKASGYTFTDYNMDWVKQSHGKSLEWIGDINPNYDITTYNQRFKGKATLTVDKSSSTAYMELRSLTSEDTAVYYCARRGFFPYYGNSYYYFDVWGAGTTVTVSS VL: QIVLTQSPTIMSASLGEEITLTCSASSSVSYMHWYQQKSGTSPKLLIYSTSNLASGVPSRFSGSGSGTFYSLTISSVEAEDAADYYCHQWSNYPWTFGGGTKLEIKR							4.09
ANTI-HUMAN ENTPD2 MAB2 (antibody, human IgG1, kappa) heavy: not shown light: EIVLTQSPATLSASPGERITLSCSASSSVSYIHWYQQKPGQAPRLLIYSTSNLASGIPARFSGSGSGTFYTLTISSVEPEDAAVYYCHQWSSYPWTFGGGTKLEIKRTVAAPSVFIFPPSDEQLKSGTASVVCLLNNFYPREAKVQWKVDNALQSGNSQESVTEQDSKDSTYSLSSTLTLSKADYEKHKVYACEVTHQGLSSPVTKSFNRGEC	98	1.4	84	2.7	86	0.8	
ANTI-HUMAN ENTPD2 MAB3 (antibody, human IgG1, kappa, V domains shown) VH: QVQLVQSGAEVVKPGASVKISCKASGYTFTDYNMDWVKQAPGQRLEWIGDINPKYDISTYNQQFKGKATITVDTSASTAYMELSSLRSEDTAVYYCARRGFFLYYGINYYYFDVWGQGTLVTVSS VL: EIVLTQSPATLSASPGERITLSCSASSSVSYIHWYQQKPGQAPRLLIYSTSNLASGIPARFSGSGSGTFYTLTISSVEPEDAAVYYCHQWSSYPWTFGGGTKLEIKR	91	1.8	84	5.8	95	1.6	
ANTI-HUMAN ENTPD2 MAB7 (antibody, human IgG1, kappa) heavy: not shown light: EIVLTQSPATLSASPGEEITLSCSASSSVSYIHWYQQKPGQAPRLLIYSTSNLASGIPARFSGSGSGTFYTLTISSVEPEDAAVYYCHQWSSYPWTFGGGTKLEIKRTVAAPSVFIFPPSDEQLKSGTASVVCLLNNFYPREAKVQWKVDNALQSGNSQESVTEQDSKDSTYSLSSTLTLSKADYEKHKVYACEVTHQGLSSPVTKSFNRGEC	95	0.8	82	2.7	92	0.6	
